Earlier results on one substance are cited in PMC5386376.

This series concerns the target Egl1 (Caenorhabditis elegans) (UniProt O61667).

Chain of Bcl-2 (P10415 whole entry): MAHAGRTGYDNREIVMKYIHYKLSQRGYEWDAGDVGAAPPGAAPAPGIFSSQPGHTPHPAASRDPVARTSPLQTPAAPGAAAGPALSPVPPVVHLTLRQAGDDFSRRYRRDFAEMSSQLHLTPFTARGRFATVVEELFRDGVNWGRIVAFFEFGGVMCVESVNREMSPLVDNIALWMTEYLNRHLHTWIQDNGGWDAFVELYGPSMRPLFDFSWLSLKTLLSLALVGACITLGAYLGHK
Chain of Egl1 (Caenorhabditis elegans) (O61667 whole entry): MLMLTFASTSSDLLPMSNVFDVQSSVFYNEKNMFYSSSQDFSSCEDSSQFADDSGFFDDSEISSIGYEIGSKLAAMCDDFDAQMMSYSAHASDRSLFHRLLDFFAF

What is called Kd is the concentration at which binding is half-saturated. Regarding Bcl-2 (from UniProt P10415), the Kd is 7.1 µM.
